Experimental data from article PMC8402609 (Vaccines, 2021).

What was measured:
Assay in all cases: SPR
Settings in all cases: both partners purified
[1] = molecular target: T1, 3D7 merozoite surface protein 2 (MSP2) (Plasmodium falciparum 3D7, UniProt P50498)
T1 construct: also called 3D7 MSP2; 3D7-MSP2

[2] = molecular target: T2, 8-residue peptide 3D7-MSP2(215-222), minimal 4D11 epitope (Plasmodium falciparum 3D7)
T2 construct: source: synthetic peptide
T2 chain: NKENCGAA

[3] = molecular target: T3, 3D7-MSP2(207-222) (WT) 16-residue peptide (Plasmodium falciparum 3D7)
T3 construct: source: synthetic peptide (Fmoc solid phase, in-house, reverse-phase purified)
T3 chain: SQKECTDGNKENCGAA

T1 sequence (P50498 21-246): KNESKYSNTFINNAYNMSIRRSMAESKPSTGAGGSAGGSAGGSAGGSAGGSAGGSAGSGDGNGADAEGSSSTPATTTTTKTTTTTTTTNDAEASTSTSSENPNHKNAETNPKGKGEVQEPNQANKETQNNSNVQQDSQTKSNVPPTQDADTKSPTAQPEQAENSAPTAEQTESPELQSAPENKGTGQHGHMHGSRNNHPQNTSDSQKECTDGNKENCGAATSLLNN

B1: mouse monoclonal antibody 4D11 IgG (antibody, V domains shown)
VH: QVRLQQSGAELVKPGASVKLSCTASGFNIKDDYMHWVKQRPEQGLEWIGRIDPANGNTQYAPKFQDKATITADTSSNTAYLQLTSLTSEDTAVYYCARGGLLRWGQGTSVTVSS
VL: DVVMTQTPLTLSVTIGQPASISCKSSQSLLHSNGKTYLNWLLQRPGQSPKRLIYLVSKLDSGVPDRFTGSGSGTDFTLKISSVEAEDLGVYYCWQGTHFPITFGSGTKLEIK
- binding result [1]: binds
- Kd [2]: 240 nM
- Kd [3]: 900 nM
